Target: purified recombinant BoNT/A light chain (Lc) (Clostridium botulinum)
Test: ELISA
Conditions: both partners purified

B1: ciA-H4 (VHH)
VHH: SGGGLVQSGGSLRLSCAASVLTLEYYAIGWFRQAPGKEREGISCTGSSGGSTVYIDSVKGRFTVVRDNAKNMVYLQMDSLQPEDTAVYYCAADDLRCGRGWSSYFRGSWGQGTQVTVSS
notes: also called JEC-3; source: E. coli, purified as a thioredoxin fusion protein
Question: Does B1 bind?
Answer: binds

B2: ciA-D1 (VHH)
VHH: QVQLVESGGGLVQPGGSLRLSCATSGFTLEYYAIGWFRQAPGKGREGVACMNSSGGGTNYADSVKGRFTISRDNAKKMVYLQMNSLKSEDTAVYYCVVDDFRCGSRWAAYLRSSWGQGTQVTVSS
notes: also called JDT-2; source: E. coli, purified as a thioredoxin fusion protein
Question: Does B2 bind?
Answer: binds

B3: ciA-H11 (VHH)
VHH: QVQLVESGGGLVQPGGSLRLSCTASTLTLNYYAIGWFRQAPGKEREGVSCTGSSGGSTVYIDSVKGRFTVVRDNAKNMVYLQMDSLQPEDTAVYYCAADDLRCGRGWSSYFRGSWGQGTQVTVSS
notes: also called JEC-11; source: E. coli, purified as a thioredoxin fusion protein
Question: Does B3 bind?
Answer: binds
